Patent US8846363B2, “Compositions of and methods of using sulfatases from Flavobacterium heparinum” (priority 2007, dated 2014)

B1: Flavobacterium heparinum 6-O-sulfatase (ORF B), recombinant, NH2-terminal truncation lacking signal sequence, SEQ ID NO: 2 (Pedobacter heparinus DSM 2366) (protein)
chain: TLMSCQQPKPAESAKRPNIVFIMTDDHTIQAISAYGSKLVKTPNLDRIANEGMLFNNCFVTNAVCGPSRATILTGKYSHLNGLTDNSKVFDSTQVIYPQLLKKAGYQTAMIGKWHLGSTPMGFDYYSILPNQGQYYQPEFIENGHLVKEKGYVTDLITDKAIGFLEKRDHDKPFLMIYQHKAPHRNWLPAPRHLGMFDDTVFPEPANLLDDFKGRGRAAKEQLMNISTDMWPAWDLKMLSTAQLDSMAKLPVSPKFKDAKGDDYQQANDPSLDKARFFEVYNRMTDAEKVQWRKVYDKRVAEFKRLNPKGADLVRWKYQQYMRDYLACVVSVDENVGRLMDYLKKIGELDNTIIVYTSDQGFYLGEHGYFDKRFMYDESFRTPLMVRYPPSVKAGSVSNAFAMNLDFAPTLLDYAGVKIPADMQGLSLRPVLDNAGKSPENWRKAVYYHYYEFPSWHMVKRHYGIRTERYKLIHFYNDIDEWELYDMQKDPHEMQNLYNDKAYEPIIKDLKVQMKKLQVQYKDTNPTEAL
notes: E. coli BL21(DE3), N-terminal 6xHis removed by thrombin
B2: Flavobacterium heparinum N-sulfamidase (ORF C), recombinant, NH2-terminal truncation lacking signal sequence, SEQ ID NO: 4 (Pedobacter heparinus DSM 2366) (protein)
chain: SCTSPEKKTDRPNILMIMSDNQSWNHVGSYGDQTVRTPNMDRIAKEGVRFTNAFCSSPSCTPARAGMLTGQDIWRLEDGGNLWGVLPVKYKVYPDLLEEAGYAIGFQGKGWGPGSFEANKRPRNPAGNEFKSFGAFLKDKKEGPWCYWISSHEPHRPYVEGSGEKAGIDPNKVKVPAYLPDHISIRKDIADYYAAVETFDRELGEALDQLKASGELDNTVIVVCSDNGWQMPRGLANLYDFGTHVPLIISWPGKFKQDVVADNLVTLNDLAPTFLQLGKVPVPADMTGKSLLPIVEAGKKDEKPRDYVVLGRERHAFVRRHGLGYPGRAIRTKDYLYIKNYEPNRWPAGDPPFYGDIDPYMFNWPGETKYYLIEHKDDPKVKSFFELGMGKRPAEELFDINKDPDELHNLAALPEYQKIKQELVAKLRNYLVATKDPRETNGNIQIWDTAAYFSEIDKTPKPSKEMQKRFKLDSSYNYLK
notes: as for B1

Legend:
[1] = Sequential degradation of heparin oligosaccharide by exo-enzymes, MALDI-MS; format: biochemical; conditions: after 2-O-sulfatase and Δ4,5 glycuronidase
Experimental: The purified pentasulfated tetrasaccharide ΔU2SHNS,6SIHNS,6S was provided by Dr. I. Capila (Momenta Pharmaceuticals, Cambridge, Mass.). Enzyme sequence was as follows: 2-O-sulfatase→Δ4,5 glycuronidase→6-O-sulfatase→N-sulfamidase. After each step, the enzyme was heat inactivated and 20 μL aliquots removed prior to the addition of the next enzyme in the sequence. Initial reaction conditions included 20 mM Tris, pH 7.2 and 60 nanomoles of tetrasaccharide in a 120 μL reaction volume. All enzyme reactions were carried out at 30° C. Enzyme specific conditions included the following: 1) 2-O-sulfatase, 1 μM enzyme, 6 hours; 2) Δ4,5 glycuronidase, 1 μM enzyme, 6 hours; 3) 6-O-sulfatase, 5 μM enzyme, 5 mM CaCl2, 12-15 hours; 4) N-sulfamidase, same conditions as for 6-O-sulfatase. Molecular masses of enzyme products were determined by MALDI mass spectrometry using established methods (Rhomberg et al., 1998, Proc Natl Acad Sci USA 95, 12232-12237).

[2] = Compositional analyses of sulfatase treated heparin; format: biochemical; conditions: 8 hours preincubation, then heparinase I and III
Experimental: 20 μg heparin were preincubated with 10 μM 6-O-sulfatase or N-sulfamidase for 8 hours at 30° C. in a 20 μL reaction which included 25 mM sodium acetate, pH 7.0 and 2 mM calcium acetate, pH 7.0. Following this preincubation, enzymes were inactivated by heat denaturation at 95° C. for 10 minutes and heparin exhaustively digested overnight at 37° C. by the addition of 2 μL of a concentrated enzyme cocktail containing heparinase I and III. Subsequent CE-based compositional analyses of heparinase-derived disaccharides were completed as described (Venkataraman et al., 1999 Science 286, 537-542).

[3] = ESI mass spectrometry of desulfation of non-derivatized sulfated glucosamine monosaccharides; format: biochemical
Experimental: Electrospray ionization mass spectrometry was performed in the negative ion mode using an Agilent 1100 Series VL LC/MSD Trap. For simplicity, the samples were prepared by adding MeOH directly to the enzymatic reaction mixtures without purification and were directly injected into the source of the mass spectrometer using a syringe pump at a rate of ˜8 μl/min, The SPS function of the software (LC/MSD Trap Software 4.1 Build 143, MSD Trap Control Version 5.0 Build 65) was used to tune the instrument with the target mass set to the mass of the substrate, the sample stability set to 50% and the drive level set to 100%. Data were acquired over the scan range of 100-2200 m/z by accumulating 30,000 ions per scan. Capillary voltage was set to 3000 V. Nitrogen was used as the drying gas while helium was used as the nebulizing gas, with flow rates of 5 and 15 liters/min, respectively. In each case a minimum of ten spectra were averaged.
For the experiments determining the order of action of the enzymes, reactions were carried out with 100 μM substrate, 2 mM CaCl2, 5 μM enzyme and various buffers at 37° C. overnight. Samples were diluted 1:10 in MeOH prior to analysis in the ESI, and the carrier solvent was H2O:MeOH (1:10, v/v). For the time course experiments showing desulfation of different unlabeled monosaccharides, reactions were carried out with 2.5 mM substrate, 5 mM CaCl2, 1 μM enzyme and 50 mM acetate buffer at pH 5.5 for the 6-O-sulfatase and pH 6.0 for the N-sulfamidase at 37° C. Reactions were quenched by diluting the samples 1:4 in MeOH. The carrier solvent was H2O:MeOH (1:4, v/v). In these experiments, 4-MU-GlcNS was added prior to injection as an internal standard to monitor ionization efficiency and mass accuracy within the source and trap.

[4] = Storage stability of purified enzymes; format: physicochemical; conditions: 4° C., ~10 mg/mL
Experimental: Final protein concentrations were determined colorimetrically using the Bradford Assay (Bio-Rad, Hercules, Calif.) and confirmed by UV absorption spectroscopy using theoretical molar extinction coefficients (ε280) of 94,730 M^−1 (61,572 Da) and 86,340 (53,193 Da) for the NH2-terminally truncated ORF B (6-O-sulfatase) and ORF C(N-sulfamidase), respectively. These values were calculated for thrombin-cleaved proteins lacking a 6×His purification tag. Enzymes were stored at 4° C. at a concentration of ˜10 mg/mL.

[5] = Pilot capillary electrophoresis desulfation assay with monosulfated 4-MU gluco- and galactopyranosides; format: biochemical
Experimental: Initial assessment of substrate specificity and pH optima was made using a capillary electrophoresis-based assay for the detection of desulfated products. Preliminary enzyme activity was measured against the following series of fluorescently derivatized, monosulfated gluco and galactopyranosides: 4-MU-GlcNAc,6S, 4-MU-GlcNS, 4-MU-GalNAc,6S and 4-MU-Gal6S. Standard reactions included 1 mM substrate, 1-10 μM enzyme, 50 mM sodium acetate, pH 5.5-6.5 and 5 mM CaCl2 in a 20 μL reaction volume. For pilot experiments, exhaustive reactions involved overnight incubations at 30° C. Enzyme was inactivated by heat denaturation at 95° C. for 10 minutes, followed by a 10-fold dilution into water. Reaction products were resolved by capillary electrophoresis using a 25 cm long, 75 μm (i.d.) fused silica capillary (Agilent Technologies, Palo Alto, Calif.). Electrophoresis was carried out under negative polarity by applying a voltage of −15 kV (˜1.2 W) for 10 minutes. Substrate desulfation was measured as a percentage of substrate depletion relative to a minus enzyme control as monitored by the loss of UV absorbance at 315 nm detected at approximately 4 minutes. A standard capillary electrophoresis buffer included 50 mM Tris and 10 μM dextran sulfate (average MW of 10,000 Da) adjusted to pH 2.0 with phosphoric acid. At this pH, saccharide migration occurred on the basis of charge without the influence of electro-osmotic flow.

[6] = Desulfation of unsaturated heparin disaccharides by capillary electrophoresis; format: biochemical; conditions: ΔU±2SHNAc,6S, ΔU±2SHNS,6S (6-O-sulfatase); ΔU±2SHNS+6S (N-sulfamidase)
Experimental: The ability of both enzymes to desulfate unsaturated heparin and chondroitin disaccharides was assessed essentially as described for capillary electrophoresis based compositional analyses of enzymatically generated glycosaminoglycan di- and tetra-saccharides (Venkataraman et al., 1999 Science 286, 537-542). For these studies, the following disaccharide substrates were tested: ΔUGlcNAc,6S; ΔU2SGlcNAc,6S; ΔUGlcNS; ΔUGlcNS,6S; ΔU2SGlcNS,6S; and ΔUGalNac,6S. Reactions included 500 μM substrate, 10 μM enzyme, 50 mM sodium acetate, pH 6.5 and +/−2 mM CaCl2 in a 20 μL reaction volume.

effect of sulfatase pretreatment of unfractionated heparin on heparinase-derived cleavage products [2]	Molecule	desulfation of the trisaccharides at the non-reducing end [1]	effect of the presence of a 3-O-sulfate [3]	requirement at the 2-amino position of glucosamine [3]	comparative kinetic analysis GlcNAc,6S vs. GlcNS,6S ([3]; time course)	retention of enzyme activity on storage [4]	substrate specificity among four monosulfated 4-MU substrates [5]	activity on the two 6-O-sulfated galactose sugars ([5]; 4-MU-Gal6S and 4-MU-GalNAc,6S)	desulfation of unsaturated heparin disaccharides [6]	activity at the 2-amino position when a second sulfate at the 6-O position is present ([3]; substrate HNS,6S)
no effect on the compositional profile	B1	able to singularly desulfate both trisaccharides	completely inhibited	required a substituted amine (acetate or sulfate) at the 2-amino position	only a modest preference of the enzyme for the monosulfated substrate	Full enzyme activity was retained for several months	specific for the 6-O-sulfated glucosamine	did not act upon	None of the unsaturated disaccharides were desulfated	
no effect on the compositional profile	B2	not able to do so	completely inhibited			Full enzyme activity was retained for several months	could only hydrolyze the glucosamine sulfated at the 2-amino position		None of the unsaturated disaccharides were desulfated	absolutely abolished
